This note sets out measurements from patent publication US20210187106A1 (AstraZeneca / MedImmune, published 2021).

To fix the notation:
B1: human Leukemia Inhibitory Factor (LIF), expression source not stated (ligand)
chain: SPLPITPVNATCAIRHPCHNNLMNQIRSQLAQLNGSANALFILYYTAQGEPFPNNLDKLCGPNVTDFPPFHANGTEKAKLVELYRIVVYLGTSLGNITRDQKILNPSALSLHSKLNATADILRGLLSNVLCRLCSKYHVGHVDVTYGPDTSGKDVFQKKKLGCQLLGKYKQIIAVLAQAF
notes: also called hLIF; human LIF

In one test the target is T1, recombinant human gp130 (human, UniProt P40189 23-619, limits assumed).
T1 sequence (looked up): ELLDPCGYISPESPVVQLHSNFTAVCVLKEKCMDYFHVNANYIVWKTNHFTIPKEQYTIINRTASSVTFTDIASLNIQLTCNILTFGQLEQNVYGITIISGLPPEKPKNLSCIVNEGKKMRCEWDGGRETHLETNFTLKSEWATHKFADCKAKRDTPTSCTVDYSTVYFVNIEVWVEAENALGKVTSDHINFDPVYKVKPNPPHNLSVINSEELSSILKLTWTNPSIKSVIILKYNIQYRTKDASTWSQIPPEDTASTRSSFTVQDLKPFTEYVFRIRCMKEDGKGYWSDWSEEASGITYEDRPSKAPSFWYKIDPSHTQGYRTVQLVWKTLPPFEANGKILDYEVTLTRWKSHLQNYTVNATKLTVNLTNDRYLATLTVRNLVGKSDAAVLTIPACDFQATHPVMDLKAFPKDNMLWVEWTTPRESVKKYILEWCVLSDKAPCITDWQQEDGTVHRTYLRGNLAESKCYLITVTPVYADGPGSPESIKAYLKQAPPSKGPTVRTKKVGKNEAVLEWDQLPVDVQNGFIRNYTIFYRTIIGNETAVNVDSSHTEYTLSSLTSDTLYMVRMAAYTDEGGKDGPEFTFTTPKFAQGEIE
In words: ELISA, LIF pre-incubated with B09 and added to a plate coated with recombinant human gp130; the antibody part of the complex detected with peroxidase anti-rat IgG. (An ELISA detects its analyte on a solid surface through an enzyme-linked reagent.)

The target in test [1] is T2, recombinant human LIF receptor (hLIFR) (human, UniProt P42702 45-833, limits assumed).
T2 sequence (looked up): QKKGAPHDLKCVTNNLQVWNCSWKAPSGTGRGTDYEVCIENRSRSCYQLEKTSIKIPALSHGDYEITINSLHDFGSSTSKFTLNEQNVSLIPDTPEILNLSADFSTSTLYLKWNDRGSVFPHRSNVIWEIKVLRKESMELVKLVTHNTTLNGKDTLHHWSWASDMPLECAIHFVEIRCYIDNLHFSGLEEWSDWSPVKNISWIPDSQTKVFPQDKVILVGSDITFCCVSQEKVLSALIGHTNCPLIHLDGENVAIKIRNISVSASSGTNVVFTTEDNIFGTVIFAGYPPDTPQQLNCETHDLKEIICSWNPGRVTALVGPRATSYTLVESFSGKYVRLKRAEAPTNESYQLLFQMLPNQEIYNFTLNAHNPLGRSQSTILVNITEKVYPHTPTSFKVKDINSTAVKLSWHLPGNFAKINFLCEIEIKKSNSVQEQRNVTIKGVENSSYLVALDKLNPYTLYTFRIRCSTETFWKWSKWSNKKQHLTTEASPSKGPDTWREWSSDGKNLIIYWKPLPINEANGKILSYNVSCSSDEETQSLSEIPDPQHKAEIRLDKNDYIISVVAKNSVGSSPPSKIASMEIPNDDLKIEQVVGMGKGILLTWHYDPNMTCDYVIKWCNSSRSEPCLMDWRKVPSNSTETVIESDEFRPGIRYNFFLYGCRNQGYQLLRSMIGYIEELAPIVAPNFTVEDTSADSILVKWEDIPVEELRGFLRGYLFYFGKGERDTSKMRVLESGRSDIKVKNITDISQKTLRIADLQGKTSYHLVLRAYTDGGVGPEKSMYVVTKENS
As to the kind of experiment: Octet RED96 control experiment, h5D8 captured on AHC biosensors. Background: Biolayer interferometry detects binding as a change in optical thickness at a sensor tip.
From the text: Subsequently, the biosensors were dipped in different concentrations of LIFR.

The next test concerns the target T3, human IL-6 (E. coli) (human, UniProt P05231 30-212, limits assumed).
T3 construct: also called huIL-6 (E. coli)
In words: BLI (Octet), h5D8 amine-coupled to AR2G biosensors, cytokine as analyte; table legend: ND = no binding.

In test [2] the target is B1. As to the kind of experiment: cell-based or functional assay.

T3 sequence (P05231 30-212 limits assumed): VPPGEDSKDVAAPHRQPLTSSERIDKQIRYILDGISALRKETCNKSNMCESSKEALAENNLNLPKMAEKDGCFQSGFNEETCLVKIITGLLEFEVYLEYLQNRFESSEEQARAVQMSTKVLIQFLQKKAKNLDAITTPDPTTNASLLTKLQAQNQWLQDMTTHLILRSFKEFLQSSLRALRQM
Method for human IL-6 (E. coli): Kinetics experiments were then performed with the following Dip and Read steps at 30° C., 1000rpm: vi) 60 seconds Baseline in 1× kinetics buffer; vii) 180 seconds Association of appropriate serial dilutions of a cytokine in 1× kinetics buffer; viii) 300 seconds Dissociation in 1× kinetics buffer; ix) Three Regeneration/Neutralization cycles alternating between 10 mM glycine pH 2.0 and 1× kinetics buffer respectively (5 seconds in each for 3 cycles). Following regeneration, the biosensors were reused for subsequent binding analyses.

Turning to B1, the binding result with recombinant human gp130 was “binds”.

B2: h5D8 (humanized 5D8, H2L2 clone) (antibody, V domains shown)
VH: QVQLQESGGGLVKPGGSLRLSCAASGFTFSHAWMHWVRQAPGKGLEWVGQIKAKSDDYATYYAESVKGRFTISRDDSKNTLYLQMNSLKTEDTAVYYCTCWEWDLDFWGQGTMVTVSS
VL: DIVMTQTPLSSPVTLGQPASISCRSSQSLLDSDGHTYLNWLQQRPGQPPRLLIYSVSNLESGVPDRFSGSGAGTDFTLKISRVEAEDVGVYYCMQATHAPPYTFGQGTKLEIK
notes: Humanized IgG tested as a bivalent antibody; Only VH and VL are tied to h5D8 by name; also called G (H2L2); H5D8-1 IgG
With B2, the binding result (in test [1]; with human IL-6 (E. coli)) was “no binding” in each case. In test [2], the “IC50 for biological inhibition (pSTAT3, MSD assay) under serum starved conditions in U-251 cells” value was 490 picomolar.
